From US20180155451A1 (published 2018)

T1: FcγRIIb (human, UniProt P31994 43-217)
T1 construct: extracellular domain; also called FcgRIIb; 2b
T1 sequence (looked up): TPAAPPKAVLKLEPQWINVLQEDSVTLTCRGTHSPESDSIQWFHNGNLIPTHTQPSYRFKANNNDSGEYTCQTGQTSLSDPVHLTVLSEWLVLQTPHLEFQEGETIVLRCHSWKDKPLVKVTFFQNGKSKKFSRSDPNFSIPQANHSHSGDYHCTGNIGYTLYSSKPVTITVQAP

T2: FcγRIIb extracellular domain with C-terminal His tag (human, UniProt P31994 43-217)
T2 construct: extracellular domain; also called 2b; FcgRIIb
T2 sequence (looked up): T1 sequence (looked up)

B1: GpH7-A5/GpH7-B3 variant (L234_01G)/GpL16-k0 (antibody, human IgG1, kappa)
heavy 1: not shown
heavy 2: not shown
light: DIVMTQSPLSLPVTPGEPASISCQASESLVHSNRNTYLHWYLQKPGQSPQLLIYKVSNRFSGVPDRFSGSGSGTDFTLKISRVEAEDVGVYYCSQNTHVPPTFGQGTKVEIERTVAAPSVFIFPPSDEQLKSGTASVVCLLNNFYPREAKVQWKVDNALQSGNSQESVTEQDSKDSTYSLSSTLTLSKADYEKHKVYACEVTHQGLSSPVTKSFNRGEC
notes: IgG1 heterodimer, mutation in the GpH7-B3 chain only; also called He Ab
B2: GpH7-A5/GpH7-B3 variant E333_03V/GpL16-k0 (antibody, human IgG1, kappa)
heavy 1: not shown
heavy 2: not shown
light: B1 light
notes: He Ab: alteration in one H chain only; also called He Ab
B3: GpH7-A5/GpH7-B3 variant (L234_16H)/GpL16-k0 (antibody, human IgG1, kappa)
heavy 1: not shown
heavy 2: not shown
light: B1 light
notes: as for B1
B4: GpH7-A5/GpH7-B3 variant (L235_11K)/GpL16-k0 (antibody, human IgG1, kappa)
heavy 1: not shown
heavy 2: not shown
light: B1 light
notes: as for B1
B5: GpH7-A5/GpH7-B3 variant (P271_02A)/GpL16-k0 (antibody, human IgG1, kappa)
heavy 1: not shown
heavy 2: not shown
light: B1 light
notes: as for B1
B6: GpH7-A5/GpH7-B3 variant (S239_14T)/GpL16-k0 (antibody, human IgG1, kappa)
heavy 1: not shown
heavy 2: not shown
light: B1 light
notes: as for B1
B7: GpH7-A5/GpH7-B3 variant (L235_02A)/GpL16-k0 (antibody, human IgG1, kappa)
heavy 1: not shown
heavy 2: not shown
light: B1 light
notes: as for B1
B8: GpH7-A5/GpH7-B3 variant A330_20W/GpL16-k0 (antibody, human IgG1, kappa)
heavy 1: not shown
heavy 2: not shown
light: B1 light
notes: as for B2
B9: GpH7-A5/GpH7-B3 variant A330_07I/GpL16-k0 (antibody, human IgG1, kappa)
heavy 1: not shown
heavy 2: not shown
light: B1 light
notes: as for B2
B10: GpH7-A5/GpH7-B3 variant (S267_16H)/GpL16-k0 (antibody, human IgG1, kappa)
heavy 1: not shown
heavy 2: not shown
light: B1 light
notes: as for B1
B11: GpH7-A5/GpH7-B3 variant (L234_11K)/GpL16-k0 (antibody, human IgG1, kappa)
heavy 1: not shown
heavy 2: not shown
light: B1 light
notes: as for B1
B12: GpH7-A5/GpH7-B3 variant (L235_03V)/GpL16-k0 (antibody, human IgG1, kappa)
heavy 1: not shown
heavy 2: not shown
light: B1 light
notes: as for B1
B13: GpH7-A5/GpH7-B3 variant (L234_05P)/GpL16-k0 (antibody, human IgG1, kappa)
heavy 1: not shown
heavy 2: not shown
light: B1 light
notes: as for B1
B14: GpH7-A5/GpH7-B3 variant (L235_13S)/GpL16-k0 (antibody, human IgG1, kappa)
heavy 1: not shown
heavy 2: not shown
light: B1 light
notes: as for B1
B15: GpH7-A5/GpH7-B3 variant A330_06M/GpL16-k0 (antibody, human IgG1, kappa)
heavy 1: not shown
heavy 2: not shown
light: B1 light
notes: as for B2
B16: GpH7-A5/GpH7-B3 variant (V266_19Q)/GpL16-k0 (antibody, human IgG1, kappa)
heavy 1: not shown
heavy 2: not shown
light: B1 light
notes: as for B1
B17: GpH7-A5/GpH7-B3 variant A330_04F/GpL16-k0 (antibody, human IgG1, kappa)
heavy 1: not shown
heavy 2: not shown
light: B1 light
notes: as for B2
B18: GpH7-A5/GpH7-B3 variant (L234_15Y)/GpL16-k0 (antibody, human IgG1, kappa)
heavy 1: not shown
heavy 2: not shown
light: B1 light
notes: IgG1 heterodimer, L234Y in the GpH7-B3 chain only; also called GpH7-A5/GpH7-B3-01-15Y/GpL16-k0; He Ab
B19: GpH7-A5/GpH7-B3 variant E333_02A/GpL16-k0 (antibody, human IgG1, kappa)
heavy 1: not shown
heavy 2: not shown
light: B1 light
notes: as for B2
B20: GpH7-A5/GpH7-B3 variant (L235_06M)/GpL16-k0 (antibody, human IgG1, kappa)
heavy 1: not shown
heavy 2: not shown
light: B1 light
notes: as for B1
B21: GpH7-A5/GpH7-B3 variant (L235_14T)/GpL16-k0 (antibody, human IgG1, kappa)
heavy 1: not shown
heavy 2: not shown
light: B1 light
notes: as for B1
B22: GpH7-A5/GpH7-B3 variant (L234_13S)/GpL16-k0 (antibody, human IgG1, kappa)
heavy 1: not shown
heavy 2: not shown
light: B1 light
notes: as for B1

Assays:
FcγRIIb = target: T1, FcγRIIb; test: SPR, captured antibody; relative to GpH7-A5/GpH7-B3/GpL16-k0
FcγRIa = target: T3, FcγRIa (human, UniProt P12314 16-292); test: as above
T3 construct: extracellular domain; also called FcgRI; 1a
T3 sequence (P12314 16-292): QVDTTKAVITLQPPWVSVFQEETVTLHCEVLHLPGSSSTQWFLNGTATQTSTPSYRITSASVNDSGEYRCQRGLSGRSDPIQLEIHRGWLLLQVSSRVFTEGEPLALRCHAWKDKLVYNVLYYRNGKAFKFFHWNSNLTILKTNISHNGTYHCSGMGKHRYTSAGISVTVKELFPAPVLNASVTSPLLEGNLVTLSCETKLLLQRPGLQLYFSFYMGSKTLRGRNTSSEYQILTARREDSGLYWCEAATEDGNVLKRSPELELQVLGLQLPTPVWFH

[1] = target: T2, FcγRIIb extracellular domain with …; test: SPR, relative to GpH7-A5/GpH7-B3/GpL16-k0
Experimental: (§1) The heterodimerized antibodies He Abs in which one of the H chains was introduced with an alteration were assayed for their binding activities to each activating FcγR and inhibitory FcγR according to the method described in Example 4. […] The activating FcγRs in FIGS. 26, 27, 28, and 29 are FcγRIa, FcγRIIa (R), FcγRIIa (H), and FcγRIIIa, respectively.
(§2) Analysis of interaction between objective antibody and the FcγR was carried out using Biacore T100 (GE Healthcare). HBS-EP+ (GE Healthcare) was used as the running buffer, and the measurement temperature was set to 25° C. Chips produced by immobilizing the antigen peptide by the amine coupling method to a Series S Sencor Chip CM5 (GE Healthcare), or alternatively, chips produced by allowing preliminarily biotinylated antigen peptides to interact with and immobilize onto a Series S Sensor Chip SA (certified) (GE Healthcare) were used. Antibodies of interest were captured onto an antigen peptide-immobilized chip, and allowed to interact to each FcγR diluted with running buffer. To regenerate and repeatedly use the chip, the antibodies captured on the chip were washed off by reacting 10 mM glycine-HCl, pH 1.5.

[2] = target: T4, FcγRIIIa extracellular domain with C-terminal His tag (human, UniProt P08637 17-208); test: SPR, relative to GpH7-A5/GpH7-B3/GpL16-k0
T4 construct: extracellular domain; also called 3a; FcgRIIIa
T4 sequence (P08637 17-208): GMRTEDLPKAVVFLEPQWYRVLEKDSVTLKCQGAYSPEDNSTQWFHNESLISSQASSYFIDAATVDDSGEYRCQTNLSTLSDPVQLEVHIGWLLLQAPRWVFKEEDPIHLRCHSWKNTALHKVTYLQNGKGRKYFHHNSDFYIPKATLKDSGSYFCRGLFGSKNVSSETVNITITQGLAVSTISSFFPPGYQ
Experimental: as §1, §2

Row | Binder | He/Con_2b (FcγRIIb) | He/Con_1a (FcγRIa) | He/Con_2b [1] [control=100] | He/Con_3a [2] [control=100]
1 | B1 | 50.7 relative, HeCon Ab = 100 | 96.1 relative, HeCon Ab = 100 | – | –
2 | B2 | – | – | 93.2 | 103
3 | B3 | 59.4 relative, HeCon Ab = 100 | 94 relative, HeCon Ab = 100 | – | –
4 | B4 | 6.3 relative, HeCon Ab = 100 | 79.9 relative, HeCon Ab = 100 | – | –
5 | B5 | 88 relative, HeCon Ab = 100 | 104 relative, HeCon Ab = 100 | – | –
6 | B6 | 97.3 relative, HeCon Ab = 100 | 101 relative, HeCon Ab = 100 | – | –
7 | B7 | 63 relative, HeCon Ab = 100 | 92.2 relative, HeCon Ab = 100 | – | –
8 | B8 | – | – | 76.1 | 104
9 | B9 | – | – | 67.1 | 103
10 | B10 | 65.9 relative, HeCon Ab = 100 | 100 relative, HeCon Ab = 100 | – | –
11 | B11 | 16.2 relative, HeCon Ab = 100 | 91.8 relative, HeCon Ab = 100 | – | –
12 | B12 | 66.4 relative, HeCon Ab = 100 | 94.7 relative, HeCon Ab = 100 | – | –
13 | B13 | 72.9 relative, HeCon Ab = 100 | 99.9 relative, HeCon Ab = 100 | – | –
14 | B14 | 48.2 relative, HeCon Ab = 100 | 90.5 relative, HeCon Ab = 100 | – | –
15 | B15 | – | – | 80.5 | 142
16 | B16 | 89.2 relative, HeCon Ab = 100 | 100 relative, HeCon Ab = 100 | – | –
17 | B17 | – | – | 92.8 | 147
18 | B18 | 96.3 relative, HeCon Ab = 100 | 100 relative, HeCon Ab = 100 | – | –
19 | B19 | – | – | 83.8 | 105
20 | B20 | 81 relative, HeCon Ab = 100 | 98 relative, HeCon Ab = 100 | – | –
21 | B21 | 46.8 relative, HeCon Ab = 100 | 88.7 relative, HeCon Ab = 100 | – | –
22 | B22 | 59.3 relative, HeCon Ab = 100 | 96.9 relative, HeCon Ab = 100 | – | –
